For this data set, the target named is AAV2 OBD (Adeno-associated virus 2, UniProt P03132 1-199). The data set is described as follows: X-ray crystallography.
Chain of AAV2 OBD (P03132 1-199): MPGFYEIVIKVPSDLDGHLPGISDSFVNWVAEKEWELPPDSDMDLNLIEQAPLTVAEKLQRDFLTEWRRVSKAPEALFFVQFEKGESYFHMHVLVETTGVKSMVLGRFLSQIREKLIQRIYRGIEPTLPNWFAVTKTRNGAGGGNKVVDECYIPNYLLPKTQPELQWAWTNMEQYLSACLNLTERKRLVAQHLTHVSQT

On to ATATGCTCGCTCTT (ssDNA) [ssRBS 14-mer (Site A)], for which the binding result is reported as “binds”.

Values taken from doi:10.1101/2020.06.02.126235.
